Test results reported in paper PMC5570905, “Phytochrome-interacting factors directly suppress MIR156 expression to enhance shade-avoidance syndrome in Arabidopsis”.

T1: GST-PIF5 bHLH domain (Arabidopsis thaliana, UniProt Q84LH8 259-310)
T1 sequence: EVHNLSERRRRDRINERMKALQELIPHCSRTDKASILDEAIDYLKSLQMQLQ


Target: T1, GST-PIF5 bHLH domain
Experiment: EMSA; Beyotime EMSA kit binding buffer (composition not stated), 20 min, room temperature, 5% native PAGE; 50x and 100x unlabeled competitor
Details: protein: recombinant, tags: N-terminal GST (pGEX-4T-1), chain copies: 2, label: biotin

| Binder | binding result (blunt) | binding result (60 nt strands) |
| --- | --- | --- |
| MIR156E probe (E01/E02) (dsDNA) DNA 1: CATATTCGTTCCCACCACGTGTCTCCTCAGGGGCTGACCACGTGATTCCCACGCCGAAAG DNA 2: CTTTCGGCGTGGGAATCACGTGGTCAGCCCCTGAGGAGACACGTGGTGGGAACGAATATG | binds |  |
| MIR156E mutant probe (E03/E04) (dsDNA) DNA 1: CATATTCGTTCCCACTGACCTTCTCCTCAGGGGCTGACTGACCTATTCCCACGCCGAAAG DNA 2: CTTTCGGCGTGGGAATAGGTCAGTCAGCCCCTGAGGAGAAGGTCAGTGGGAACGAATATG | no binding |  |
| MIR156F probe (E05/E06) (dsDNA) DNA 1: AACAAACCCCATTACGACACGTGACAGGCTGGGCATTCTCCACATGCTTTCTTGCCGAAA DNA 2: TTTCGGCAAGAAAGCATGTGGAGAATGCCCAGCCTGTCACGTGTCGTAATGGGGTTTGTT | binds |  |
| MIR156F mutant probe (E07/E08) (dsDNA) DNA 1: AACAAACCCCATTACGATGACCTACAGGCTGGGCATTCTCCACATGCTTTCTTGCCGAAA DNA 2: TTTCGGCAAGAAAGCATGTGGAGAATGCCCAGCCTGTTGACCTTCGTAATGGGGTTTGTT |  | no binding |
